Results reported in publication PMC3690482 (Molecular and cellular endocrinology, 2013).

Target: MET (mouse (endogenous in NLT), UniProt P16056 25-1379)
Assay: co-IP

AXL in the MET immunoprecipitate, fold of input lysate: 0.6 fold
B1: AXL (receptor, mouse (endogenous in NLT), UniProt Q00993 19-888, looked up)
chain: AHKDTQTEAGSPFVGNPGNITGARGLTGTLRCELQVQGEPPEVVWLRDGQILELADNTQTQVPLGEDWQDEWKVVSQLRISALQLSDAGEYQCMVHLEGRTFVSQPGFVGLEGLPYFLEEPEDKAVPANTPFNLSCQAQGPPEPVTLLWLQDAVPLAPVTGHSSQHSLQTPGLNKTSSFSCEAHNAKGVTTSRTATITVLPQRPHHLHVVSRQPTELEVAWTPGLSGIYPLTHCNLQAVLSDDGVGIWLGKSDPPEDPLTLQVSVPPHQLRLEKLLPHTPYHIRISCSSSQGPSPWTHWLPVETTEGVPLGPPENVSAMRNGSQVLVRWQEPRVPLQGTLLGYRLAYRGQDTPEVLMDIGLTREVTLELRGDRPVANLTVSVTAYTSAGDGPWSLPVPLEPWRPGQGQPLHHLVSEPPPRAFSWPWWYVLLGALVAAACVLILALFLVHRRKKETRYGEVFEPTVERGELVVRYRVRKSYSRRTTEATLNSLGISEELKEKLRDVMVDRHKVALGKTLGEGEFGAVMEGQLNQDDSILKVAVKTMKIAICTRSELEDFLSEAVCMKEFDHPNVMRLIGVCFQGSDREGFPEPVVILPFMKHGDLHSFLLYSRLGDQPVFLPTQMLVKFMADIASGMEYLSTKRFIHRDLAARNCMLNENMSVCVADFGLSKKIYNGDYYRQGRIAKMPVKWIAIESLADRVYTSKSDVWSFGVTMWEIATRGQTPYPGVENSEIYDYLRQGNRLKQPVDCLDGLYALMSRCWELNPRDRPSFAELREDLENTLKALPPAQEPDEILYVNMDEGGSHLEPRGAAGGADPPTQPDPKDSCSCLTAADVHSAGRYVLCPSTAPGPTLSADRGCPAPPGQEDGA
